In assay [1] the target is HLA-A*02:01. The assay is described as follows: IEDB peptide-MHC binding, purified MHC/direct/fluorescence; filed as Kd, often an IC50 or EC50 that approximates it; ≥ and ≤ were set here for values at or beyond the usual limits of such assays. Particulars: source organism: Zaire ebolavirus.
A further assay concerns the target HLA-A*26:01. The experiment in a line: IEDB peptide-MHC binding, purified MHC/competitive/fluorescence; filed as Kd, often an IC50 or EC50 that approximates it; ≥ and ≤ were set here for values at or beyond the usual limits of such assays.
A further assay deals with HLA-B*18:01. The description is as above.
The target of assay [2] is HLA-B*46:01. The description is as above.
Assay [3] concerns the target HLA-A*03:01. The experiment in a line: IEDB peptide-MHC binding, purified MHC/competitive/fluorescence; ≥ and ≤ were set here for values at or beyond the usual limits of such assays. Particulars: source organism: Zaire ebolavirus.
Assay [4] concerns the target HLA-A*11:01. The assay is described as above. Particulars: source organism: Zaire ebolavirus.
Assay [5] addresses HLA-A*24:02. The description is as above. Particulars: source organism: Zaire ebolavirus.
Assay [6] has as its target HLA-B*07:02. The description is as above. Particulars: source organism: Zaire ebolavirus.
Assay [7] concerns the target HLA-A*02:01. The description is as above. Particulars: source organism: Zaire ebolavirus.
Assay [8] addresses HLA-B*08:01. The description is as above. Particulars: source organism: Zaire ebolavirus.
Assay [9] concerns the target HLA-B*15:01. The assay is described as above. Particulars: source organism: Zaire ebolavirus.
For a further assay, the target named is HLA-B*57:01. The assay is described as follows: IEDB peptide-MHC binding, purified MHC/competitive/fluorescence; filed as Kd, often an IC50 or EC50 that approximates it; ≥ and ≤ were set here for values at or beyond the usual limits of such assays.
A further assay concerns the target HLA-B*15:17. The assay is described as above.
Assay [10] concerns the target HLA-A*03:01. Described as above.
Another assay has as its target HLA-A*23:01. The assay is described as above.
The next assay addresses HLA-A*24:03. The description is as above.
A further assay concerns the target HLA-A*29:02. The description is as above.
Assay [11] concerns the target HLA-A*02:01. The assay is described as above.
For a further assay, the target named is HLA-A*68:02. Described as above. Particulars: source organism: Burkholderia orbicola.
The target of another assay is HLA-A*02:16. The assay is described as above.
The target of the next assay is HLA-B*39:01. Described as above.
The next assay addresses HLA-A*02:19. The description is as above.
The target in another assay is HLA-A*02:11. The assay is described as above.
The target in a further assay is HLA-A*02:12. The assay is described as above.
A further assay addresses HLA-A*69:01. The assay is described as above.
The next assay addresses HLA-B*27:03. The assay is described as above.
The target of a further assay is HLA-A*02:03. The description is as above.
Another assay has as its target HLA-B*51:01. The description is as above.
The target of assay [12] is HLA-B*15:01. Described as above.
A further assay concerns the target HLA-B*40:01. The experiment in a line: IEDB peptide-MHC binding, purified MHC/direct/fluorescence; filed as Kd, often an IC50 or EC50 that approximates it; ≥ and ≤ were set here for values at or beyond the usual limits of such assays. Particulars: source organism: Influenza A virus (A/WSN/1933(H1N1)).
The target of assay [13] is HLA-A*03:01. Described as above. Particulars: source organism: Influenza A virus (A/WSN/1933(H1N1)).
Another assay addresses HLA-B*27:05. The description is as above. Particulars: source organism: Influenza A virus (A/WSN/1933(H1N1)).
Assay [14] deals with HLA-A*11:01. Described as above. Particulars: source organism: Influenza A virus (A/WSN/1933(H1N1)).
Assay [15] deals with HLA-A*24:02. The assay is described as above. Particulars: source organism: Influenza A virus (A/WSN/1933(H1N1)).
Assay [16] addresses HLA-B*07:02. The description is as above. Particulars: source organism: Influenza A virus (A/WSN/1933(H1N1)).
A further assay addresses HLA-B*58:01. Described as above. Particulars: source organism: Influenza A virus (A/WSN/1933(H1N1)).
The target of assay [17] is HLA-B*08:01. The description is as above. Particulars: source organism: Influenza A virus (A/WSN/1933(H1N1)).
The target in another assay is HLA-B*44:02. The description is as above. Particulars: source organism: Influenza A virus (A/WSN/1933(H1N1)).
The target of another assay is HLA-A*01:01. The assay is described as above. Particulars: source organism: Influenza A virus (A/WSN/1933(H1N1)).
Assay [18] has as its target HLA-B*46:01. Described as above. Particulars: source organism: Influenza A virus (A/WSN/1933(H1N1)).
The target of assay [19] is HLA-B*15:01. The assay is described as above. Particulars: source organism: Influenza A virus (A/WSN/1933(H1N1)).
The mark [20] stands for this setting: source organism: Zaire ebolavirus.
Where [21] appears, read: source organism: Burkholderia orbicola.
Setting [22] is: source organism: Brucella melitensis bv. 1 str. 16M.

With RLMRTNFLI, the equilibrium dissociation constant (Kd) with HLA-A*02:01 [1] was 0.0175 µM; in the assay with HLA-A*26:01 (setting [20]) it was at least 20 µM; with HLA-B*18:01 (setting [20]), at least 20 µM; with HLA-B*46:01 [2] (setting [20]), at least 20 µM. Moreover, the half-inhibitory concentration (IC50) turned out to be 3.42 µM with HLA-A*03:01 [3]; 3.95 µM with HLA-A*11:01 [4]; 0.0213 µM in the assay with HLA-A*24:02 [5]; 15.9 µM with HLA-B*07:02 [6]; 0.514 µM with HLA-A*02:01 [7]; 58.7 µM with HLA-B*08:01 [8]. The same sequence gave a 50% inhibitory concentration (IC50) in the assay with HLA-B*15:01 [9] of 11.4 µM.

For RIEQLYPFA, the Kd with HLA-B*57:01 (setting [21]), in the assay with HLA-B*15:17 (setting [21]), with HLA-A*03:01 [10] (setting [21]), with HLA-A*23:01 (setting [21]), with HLA-A*24:03 (setting [21]) and in the assay with HLA-A*29:02 (setting [21]) was at least 20 µM each time. The dissociation constant Kd with HLA-A*02:01 [11] (setting [21]) was at least 20 µM; with HLA-A*68:02 it was at least 20 µM; with HLA-A*02:16 (setting [21]), 0.292 µM; with HLA-B*39:01 (setting [21]), at least 20 µM; with HLA-A*02:19 (setting [21]) it was at least 20 µM; in the assay with HLA-A*02:11 (setting [21]), at least 20 µM. Also, the dissociation constant Kd with HLA-A*02:12 (setting [21]), with HLA-A*69:01 (setting [21]), in the assay with HLA-B*27:03 (setting [21]), with HLA-A*02:03 (setting [21]), in the assay with HLA-A*26:01 (setting [21]) and with HLA-B*51:01 (setting [21]) was at least 20 µM each time. Also, the Kd with HLA-B*18:01 (setting [21]), with HLA-B*46:01 [2] (setting [21]) and with HLA-B*15:01 [12] (setting [21]) was at least 20 µM each time.

With AVGVVCTGL, the Kd with HLA-B*57:01 (setting [22]), with HLA-B*15:17 (setting [22]), in the assay with HLA-A*03:01 [10] (setting [22]), with HLA-A*23:01 (setting [22]), with HLA-A*24:03 (setting [22]) and in the assay with HLA-A*29:02 (setting [22]) was at least 20 µM in each case. The Kd is at least 20 µM with HLA-A*02:01 [11] (setting [22]); 0.273 µM with HLA-A*02:16 (setting [22]); at least 20 µM with HLA-B*39:01 (setting [22]); at least 20 µM with HLA-A*02:19 (setting [22]); at least 20 µM with HLA-A*02:11 (setting [22]); at least 20 µM with HLA-A*02:12 (setting [22]). Besides, the Kd with HLA-A*69:01 (setting [22]), in the assay with HLA-B*27:03 (setting [22]), with HLA-A*02:03 (setting [22]), in the assay with HLA-A*26:01 (setting [22]), in the assay with HLA-B*51:01 (setting [22]) and with HLA-B*18:01 (setting [22]) was at least 20 µM in each case. Moreover, the equilibrium dissociation constant (Kd) in the assay with HLA-B*46:01 [2] (setting [22]) and in the assay with HLA-B*15:01 [12] (setting [22]) was at least 20 µM in each case.

Consider NHKNKFMAI, for which the figures for the concentration for half-maximal inhibition (IC50) with HLA-A*24:02 [5] and with HLA-B*08:01 [8] were 19.4 µM and 15.9 µM, respectively.

In the case of TNFLIKFLL, the IC50 in the assay with HLA-A*24:02 [5] was 3.2 µM; with HLA-A*02:01 [7], at least 181 µM; with HLA-B*08:01 [8] it was at least 523 µM.

With NLEPGTFDL, the Kd with HLA-B*40:01, with HLA-A*03:01 [13], with HLA-B*27:05, in the assay with HLA-A*11:01 [14], in the assay with HLA-A*24:02 [15] and with HLA-B*07:02 [16] was at least 20 µM throughout. Further, the equilibrium dissociation constant (Kd) with HLA-B*58:01, with HLA-B*08:01 [17], with HLA-B*44:02, with HLA-A*01:01, with HLA-B*46:01 [18] and with HLA-B*15:01 [19] was at least 20 µM in each case.

These data come from the Immune Epitope Database (IEDB).
